Experimental data as given in patent US10227387 (CHILDREN S HOSPITAL MEDICAL CENTER, dated 2019).

Target: LRP1 (full-length cDNA of LRP-1, Accession #NM_002332.2) overexpressed on cells (human, UniProt Q07954 20-4544)
Experiment: cell-based or functional assay

LRP1 (full-length cDNA of LRP-1, Accession #NM_002332.2) overexpressed on cells, sequence (Q07954 20-4544): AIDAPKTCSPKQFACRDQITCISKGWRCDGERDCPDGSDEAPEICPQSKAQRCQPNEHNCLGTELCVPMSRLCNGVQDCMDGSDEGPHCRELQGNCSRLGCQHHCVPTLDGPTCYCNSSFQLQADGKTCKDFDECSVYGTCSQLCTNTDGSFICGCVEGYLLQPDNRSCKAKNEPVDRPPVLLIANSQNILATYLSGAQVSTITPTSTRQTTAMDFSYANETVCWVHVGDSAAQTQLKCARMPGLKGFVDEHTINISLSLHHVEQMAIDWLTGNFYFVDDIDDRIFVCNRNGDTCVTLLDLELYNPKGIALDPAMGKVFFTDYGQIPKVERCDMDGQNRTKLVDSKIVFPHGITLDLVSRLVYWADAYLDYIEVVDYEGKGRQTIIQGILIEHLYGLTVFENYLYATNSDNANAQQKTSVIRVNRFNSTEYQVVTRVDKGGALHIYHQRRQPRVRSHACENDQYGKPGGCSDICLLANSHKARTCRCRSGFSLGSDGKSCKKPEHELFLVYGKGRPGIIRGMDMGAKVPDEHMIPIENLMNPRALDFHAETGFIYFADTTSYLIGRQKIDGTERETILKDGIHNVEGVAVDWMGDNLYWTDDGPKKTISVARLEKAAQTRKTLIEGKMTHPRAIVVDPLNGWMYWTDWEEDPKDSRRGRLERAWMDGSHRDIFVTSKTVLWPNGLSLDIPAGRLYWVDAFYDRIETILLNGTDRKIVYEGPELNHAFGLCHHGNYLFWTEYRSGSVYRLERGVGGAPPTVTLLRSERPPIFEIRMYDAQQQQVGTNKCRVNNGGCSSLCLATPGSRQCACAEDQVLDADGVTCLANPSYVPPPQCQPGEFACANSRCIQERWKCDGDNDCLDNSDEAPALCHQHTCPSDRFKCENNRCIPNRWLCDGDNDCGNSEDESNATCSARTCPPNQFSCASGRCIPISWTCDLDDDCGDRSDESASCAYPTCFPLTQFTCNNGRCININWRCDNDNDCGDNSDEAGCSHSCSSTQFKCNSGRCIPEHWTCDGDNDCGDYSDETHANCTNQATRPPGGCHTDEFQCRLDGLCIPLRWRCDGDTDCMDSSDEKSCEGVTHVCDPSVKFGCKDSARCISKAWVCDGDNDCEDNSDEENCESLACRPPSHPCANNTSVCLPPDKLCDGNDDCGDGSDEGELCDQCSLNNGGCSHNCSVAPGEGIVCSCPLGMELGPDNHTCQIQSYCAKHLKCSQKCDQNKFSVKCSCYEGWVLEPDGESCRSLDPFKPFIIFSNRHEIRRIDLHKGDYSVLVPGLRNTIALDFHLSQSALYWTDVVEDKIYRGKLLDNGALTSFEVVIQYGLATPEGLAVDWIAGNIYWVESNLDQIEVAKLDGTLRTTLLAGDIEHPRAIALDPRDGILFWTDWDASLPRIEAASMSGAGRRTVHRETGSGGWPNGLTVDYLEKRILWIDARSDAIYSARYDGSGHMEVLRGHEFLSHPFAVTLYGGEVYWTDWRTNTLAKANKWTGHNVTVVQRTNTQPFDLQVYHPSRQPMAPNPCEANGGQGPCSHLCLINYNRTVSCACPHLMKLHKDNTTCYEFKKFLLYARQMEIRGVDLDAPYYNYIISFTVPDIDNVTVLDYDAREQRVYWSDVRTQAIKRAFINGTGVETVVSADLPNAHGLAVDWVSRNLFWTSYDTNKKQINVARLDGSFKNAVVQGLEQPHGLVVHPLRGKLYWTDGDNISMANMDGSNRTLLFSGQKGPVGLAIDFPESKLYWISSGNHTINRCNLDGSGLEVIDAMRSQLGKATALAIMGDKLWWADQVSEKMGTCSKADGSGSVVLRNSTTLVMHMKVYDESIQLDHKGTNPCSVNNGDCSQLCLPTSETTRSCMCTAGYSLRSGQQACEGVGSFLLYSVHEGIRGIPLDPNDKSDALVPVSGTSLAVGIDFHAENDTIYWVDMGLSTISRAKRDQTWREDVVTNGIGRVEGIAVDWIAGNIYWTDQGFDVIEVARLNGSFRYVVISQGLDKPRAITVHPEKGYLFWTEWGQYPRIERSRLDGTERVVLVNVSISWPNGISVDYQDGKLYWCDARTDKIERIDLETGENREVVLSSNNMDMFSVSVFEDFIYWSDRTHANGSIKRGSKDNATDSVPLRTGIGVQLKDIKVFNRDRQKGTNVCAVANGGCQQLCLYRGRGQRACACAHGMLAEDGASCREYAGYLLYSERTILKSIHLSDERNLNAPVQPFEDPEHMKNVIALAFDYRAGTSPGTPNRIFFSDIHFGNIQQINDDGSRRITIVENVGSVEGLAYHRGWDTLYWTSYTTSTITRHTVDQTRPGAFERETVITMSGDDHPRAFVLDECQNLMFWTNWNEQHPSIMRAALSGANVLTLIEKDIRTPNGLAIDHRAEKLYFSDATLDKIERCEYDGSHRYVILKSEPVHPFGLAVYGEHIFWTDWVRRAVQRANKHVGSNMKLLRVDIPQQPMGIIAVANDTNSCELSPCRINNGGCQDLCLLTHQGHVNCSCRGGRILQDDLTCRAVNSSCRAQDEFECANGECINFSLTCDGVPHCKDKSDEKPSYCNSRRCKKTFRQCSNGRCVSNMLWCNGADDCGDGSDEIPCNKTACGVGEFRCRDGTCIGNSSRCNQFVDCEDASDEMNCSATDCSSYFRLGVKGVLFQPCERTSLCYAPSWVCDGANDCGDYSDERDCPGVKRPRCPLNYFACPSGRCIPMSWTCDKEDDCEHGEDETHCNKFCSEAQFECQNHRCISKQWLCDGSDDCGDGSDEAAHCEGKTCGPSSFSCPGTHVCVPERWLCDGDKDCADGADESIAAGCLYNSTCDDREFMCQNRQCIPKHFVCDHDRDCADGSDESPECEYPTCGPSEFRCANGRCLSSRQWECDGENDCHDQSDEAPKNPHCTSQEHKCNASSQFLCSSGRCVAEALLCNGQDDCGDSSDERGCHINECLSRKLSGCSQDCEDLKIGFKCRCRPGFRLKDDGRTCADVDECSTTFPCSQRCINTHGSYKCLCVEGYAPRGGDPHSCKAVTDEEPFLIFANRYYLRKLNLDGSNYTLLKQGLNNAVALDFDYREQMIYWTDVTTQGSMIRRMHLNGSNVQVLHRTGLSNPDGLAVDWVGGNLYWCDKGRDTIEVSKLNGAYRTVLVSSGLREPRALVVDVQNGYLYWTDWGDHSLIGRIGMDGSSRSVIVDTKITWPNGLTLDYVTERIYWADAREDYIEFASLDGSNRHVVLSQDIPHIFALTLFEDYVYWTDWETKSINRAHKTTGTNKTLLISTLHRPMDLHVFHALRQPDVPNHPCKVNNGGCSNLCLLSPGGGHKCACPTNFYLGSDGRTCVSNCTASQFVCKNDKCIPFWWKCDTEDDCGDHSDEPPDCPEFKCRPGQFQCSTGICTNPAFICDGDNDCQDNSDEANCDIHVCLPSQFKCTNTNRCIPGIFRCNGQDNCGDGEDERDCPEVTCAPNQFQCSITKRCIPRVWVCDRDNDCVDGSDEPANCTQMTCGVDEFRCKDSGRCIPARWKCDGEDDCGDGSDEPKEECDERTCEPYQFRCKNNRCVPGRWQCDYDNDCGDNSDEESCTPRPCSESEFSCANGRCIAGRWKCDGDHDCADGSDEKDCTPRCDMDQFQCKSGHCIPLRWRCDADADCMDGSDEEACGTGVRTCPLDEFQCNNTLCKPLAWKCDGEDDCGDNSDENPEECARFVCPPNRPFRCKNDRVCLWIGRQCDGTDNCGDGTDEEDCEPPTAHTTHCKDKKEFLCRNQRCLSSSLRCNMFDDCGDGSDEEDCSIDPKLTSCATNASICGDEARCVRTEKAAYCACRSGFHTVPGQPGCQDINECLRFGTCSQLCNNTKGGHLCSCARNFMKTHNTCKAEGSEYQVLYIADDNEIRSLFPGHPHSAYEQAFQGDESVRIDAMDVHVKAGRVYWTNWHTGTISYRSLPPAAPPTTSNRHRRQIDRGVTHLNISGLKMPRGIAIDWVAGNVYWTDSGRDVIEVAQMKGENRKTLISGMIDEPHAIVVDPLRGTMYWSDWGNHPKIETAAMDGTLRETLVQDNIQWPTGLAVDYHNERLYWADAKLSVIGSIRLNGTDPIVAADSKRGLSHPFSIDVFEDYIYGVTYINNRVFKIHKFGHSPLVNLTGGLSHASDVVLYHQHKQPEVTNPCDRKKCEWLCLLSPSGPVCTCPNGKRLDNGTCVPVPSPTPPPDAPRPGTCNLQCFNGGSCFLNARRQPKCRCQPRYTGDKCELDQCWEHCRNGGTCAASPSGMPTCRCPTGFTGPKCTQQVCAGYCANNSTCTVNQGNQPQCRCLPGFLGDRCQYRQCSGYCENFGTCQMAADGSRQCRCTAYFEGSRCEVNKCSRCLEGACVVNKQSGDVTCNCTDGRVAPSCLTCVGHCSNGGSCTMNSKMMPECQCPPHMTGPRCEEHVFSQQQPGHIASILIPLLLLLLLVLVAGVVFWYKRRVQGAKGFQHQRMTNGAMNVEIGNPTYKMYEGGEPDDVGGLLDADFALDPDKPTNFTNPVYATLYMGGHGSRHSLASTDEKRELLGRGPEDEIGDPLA

intracellular enzyme level in pause-chase uptake assay, CHO^LDLRneg-LRP1 cells, against unmodified IDUA: 2 fold
B1: IDUAe1 (enzyme)
chain: APHLVHVDAARALWPLRRFWRSTGFCPPLPHSQADQYVLSWDQQLNLAYVGAVPHRGIKQVRTHWLLELVTTRGSTGRGLSYNFTHLDGYLDLLRENQLLPGFELMGSASGHFTDFEDKQQVFEWKDLVSSLARRYIGRYGLAHVSKWNFETWNEPDHHDFDNVSMTMQGFLNYYDACSEGLRAASPALRLGGPGDSFHTPPRSPLSWGLLRHCHDGTNFFTGEAGVRLDYISLHRKGARSSISILEQEKVVAQQIRQLFPKFADTPIYNDEADPLVGWSLPQPWRADVTYAAMVVKVIAQHQNLLLANTTSAFPYALLSNDNAFLSYHPHPFAQRTLTARFQVNNTRPPHVQLLRKPVLTAMGLLALLDEEQLWAEVSQAGTVLDSNHTVGVLASAHRPQGPADAWRAAVLIYASDDTRAHPNRSVAVTLRLRGVPPGPGLVYVTRYLDNGLCSPDGEWRRLGRPVFPTAEQFRRMRAAEDPVAAAPRPLPAGGRLTLRPALRLPSLLLVHVCARPEKPPGQVTRLRALPLTQGQLVLVWSDEHVGSKCLWTYEIQFSQDGKAYTPVSRKPSTFNLFVFSPDTGAVSGSYRVRALDYWARPGPFSDPVPYLEVPVPRGPPSPGNPILKKATAYILLRKLRKRLLLRKLRKRLL
